In the supplement of paper PMC11136658:

Tested on: peptide library, one residue held at a place counted from the Y acceptor
Assay: relative phosphorylation of the sub-library (ratio to the mean residue at this position); higher = residue favoured
In short: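 Within 384-well plates, purified recombinant kinases phosphorylated biotinylated Tyr-centred peptide library mixtures over 90 min using 50 μM ATP spiked with γ-32P-ATP; each mixture fixed one residue at one position from −5 to +5. Streptavidin membrane capture, rinsing, phosphorimaging and ImageQuant gave the intensities. These were normalized per position to the sum of the 18 randomized residues (16 for the Ser/Thr-free library) and multiplied by that number.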

FES, construct: Full length, human, sequence (P07332 whole entry, looked up): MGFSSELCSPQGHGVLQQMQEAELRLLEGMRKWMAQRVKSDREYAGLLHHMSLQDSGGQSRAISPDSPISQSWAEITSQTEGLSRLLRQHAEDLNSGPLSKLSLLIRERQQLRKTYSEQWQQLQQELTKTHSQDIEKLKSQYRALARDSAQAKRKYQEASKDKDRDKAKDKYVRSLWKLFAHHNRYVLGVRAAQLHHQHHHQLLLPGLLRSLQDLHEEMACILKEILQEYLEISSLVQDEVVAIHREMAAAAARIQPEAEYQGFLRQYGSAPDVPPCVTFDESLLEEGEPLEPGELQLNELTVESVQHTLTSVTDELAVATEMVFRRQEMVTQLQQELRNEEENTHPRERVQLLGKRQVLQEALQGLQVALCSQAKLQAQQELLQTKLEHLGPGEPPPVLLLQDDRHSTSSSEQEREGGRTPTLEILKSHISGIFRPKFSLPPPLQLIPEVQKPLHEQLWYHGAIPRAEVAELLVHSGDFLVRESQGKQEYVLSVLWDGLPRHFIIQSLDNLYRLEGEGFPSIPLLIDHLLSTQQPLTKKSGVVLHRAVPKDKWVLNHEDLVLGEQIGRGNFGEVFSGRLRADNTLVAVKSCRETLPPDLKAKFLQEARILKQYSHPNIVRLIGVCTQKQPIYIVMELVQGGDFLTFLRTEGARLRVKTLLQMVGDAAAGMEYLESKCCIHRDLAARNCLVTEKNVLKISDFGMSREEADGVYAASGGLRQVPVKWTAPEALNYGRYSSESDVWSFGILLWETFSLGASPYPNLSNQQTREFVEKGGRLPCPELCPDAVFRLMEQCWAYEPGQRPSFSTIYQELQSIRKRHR
FER, construct: aa-541-end, human, sequence (P16591 whole entry, looked up): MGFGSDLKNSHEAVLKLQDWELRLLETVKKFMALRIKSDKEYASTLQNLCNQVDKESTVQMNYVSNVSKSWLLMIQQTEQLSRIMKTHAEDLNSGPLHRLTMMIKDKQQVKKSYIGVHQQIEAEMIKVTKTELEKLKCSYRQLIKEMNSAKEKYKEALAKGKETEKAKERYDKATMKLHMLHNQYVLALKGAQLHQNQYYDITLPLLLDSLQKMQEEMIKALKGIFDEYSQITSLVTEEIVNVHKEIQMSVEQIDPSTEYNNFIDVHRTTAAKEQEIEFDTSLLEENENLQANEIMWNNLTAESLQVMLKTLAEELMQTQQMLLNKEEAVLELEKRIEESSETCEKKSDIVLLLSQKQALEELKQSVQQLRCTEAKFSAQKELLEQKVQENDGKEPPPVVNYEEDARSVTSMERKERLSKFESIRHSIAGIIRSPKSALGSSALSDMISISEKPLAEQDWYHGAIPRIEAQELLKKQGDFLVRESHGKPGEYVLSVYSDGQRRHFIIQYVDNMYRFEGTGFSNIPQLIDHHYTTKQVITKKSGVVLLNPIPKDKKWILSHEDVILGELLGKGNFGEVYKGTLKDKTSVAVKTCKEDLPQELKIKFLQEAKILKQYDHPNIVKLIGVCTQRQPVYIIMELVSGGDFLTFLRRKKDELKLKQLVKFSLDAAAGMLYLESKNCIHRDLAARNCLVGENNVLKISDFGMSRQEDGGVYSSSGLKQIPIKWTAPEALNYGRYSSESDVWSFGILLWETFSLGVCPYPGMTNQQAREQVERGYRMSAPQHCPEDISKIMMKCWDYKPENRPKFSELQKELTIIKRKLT

FER, construct: aa-541-end, human (from UniProt P16591)
relative phosphorylation
Conditions | at +1 | at +2 | at +3 | at +4 | at +5 | at -1 | at -2 | at -3 | at -4 | at -5
A fixed | 1.7 | 0.886 | 0.866 | 0.927 | 1.07 | 0.942 | 1 | 0.818 | 1.1 | 1.05
D fixed | 1.32 | 0.911 | 0.521 | 0.838 | 0.592 | 1.12 | 1.15 | 1.29 | 1.31 | 1.22
E fixed | 2.5 | 1.28 | 0.611 | 1.42 | 0.604 | 1.19 | 1.48 | 1.74 | 1.62 | 1.13
F fixed | 0.517 | 1.27 | 1.41 | 1.11 | 1.29 | 1.45 | 0.696 | 0.988 | 1.05 | 0.972
G fixed | 1.24 | 0.645 | 0.606 | 0.94 | 0.882 | 0.427 | 1.09 | 1.1 | 1.12 | 1.17
H fixed | 0.647 | 0.83 | 1.93 | 1.12 | 0.933 | 1.52 | 1.1 | 1.07 | 0.885 | 0.982
I fixed | 0.832 | 1.03 | 1.73 | 0.911 | 1.14 | 1.85 | 0.934 | 0.804 | 0.92 | 1.01
K fixed | 0.31 | 0.646 | 0.36 | 0.941 | 0.58 | 0.357 | 0.735 | 0.617 | 0.798 | 0.831
L fixed | 0.71 | 1.15 | 1.06 | 0.874 | 1.31 | 1.43 | 0.916 | 0.84 | 0.958 | 0.977
M fixed | 0.969 | 0.973 | 1.12 | 1.29 | 1.08 | 1.06 | 0.76 | 1.01 | 0.93 | 1.06
N fixed | 0.751 | 1.18 | 0.836 | 0.923 | 0.708 | 0.983 | 1.26 | 1.35 | 0.973 | 1.12
P fixed | 0.323 | 0.867 | 0.89 | 0.873 | 2.09 | 1.05 | 1.05 | 0.971 | 1.08 | 1.02
Q fixed | 1.48 | 0.878 | 0.658 | 1.11 | 0.846 | 0.73 | 1.18 | 0.859 | 1.14 | 1.05
R fixed | 0.35 | 0.737 | 0.547 | 1.12 | 0.721 | 0.309 | 0.901 | 0.762 | 0.757 | 0.898
S fixed | 1.42 | 0.917 | 0.82 | 0.766 | 0.999 | 0.619 | 1.1 | 1 | 0.794 | 0.849
T fixed | 1.14 | 0.96 | 0.839 | 0.775 | 1.05 | 0.866 | 0.932 | 0.997 | 0.664 | 0.824
V fixed | 1.13 | 0.929 | 1.34 | 0.922 | 1.19 | 1.29 | 0.897 | 0.788 | 0.825 | 0.807
W fixed | 0.667 | 1.91 | 1.86 | 1.14 | 0.931 | 0.809 | 0.824 | 0.981 | 1.07 | 1.04
pThr fixed | 1.55 | 1.12 | 0.721 | 0.549 | 0.543 | 1.14 | 1.18 | 1.26 | 1.2 | 1.09
pTyr fixed | 2 | 1.26 | 1.01 | 0.849 | 0.471 | 3.56 | 1.58 | 1.81 | 1.63 | 1.13

FES, construct: Full length, human (from UniProt P07332)
relative phosphorylation
Conditions | at +1 | at +2 | at +3 | at +4 | at +5 | at -1 | at -2 | at -3 | at -4 | at -5
A fixed | 1.45 | 0.535 | 0.428 | 0.817 | 1.18 | 0.518 | 1.05 | 0.86 | 1.26 | 1
D fixed | 0.789 | 0.715 | 0.235 | 0.622 | 0.47 | 0.77 | 1.01 | 1.52 | 1.16 | 0.941
E fixed | 2.65 | 0.794 | 0.289 | 1 | 0.374 | 0.567 | 1.27 | 1.89 | 1.27 | 0.9
F fixed | 0.872 | 1.58 | 1.32 | 1.07 | 1.71 | 1.3 | 0.851 | 1.44 | 1.13 | 1.14
G fixed | 0.754 | 0.372 | 0.35 | 1.01 | 0.809 | 0.274 | 1.26 | 0.985 | 1.4 | 1.09
H fixed | 0.471 | 0.425 | 0.752 | 0.957 | 1.24 | 0.718 | 0.917 | 0.826 | 0.74 | 0.979
I fixed | 1.07 | 1.3 | 3.25 | 1.25 | 1.23 | 4.02 | 1.02 | 0.823 | 1.1 | 1.07
K fixed | 0.208 | 0.294 | 0.21 | 0.592 | 0.394 | 0.273 | 0.62 | 0.44 | 0.615 | 0.766
L fixed | 0.854 | 1.56 | 1.45 | 0.795 | 1.35 | 2.41 | 1.24 | 0.866 | 1.1 | 1.09
M fixed | 1.82 | 1.36 | 2.19 | 1.68 | 1.52 | 1.05 | 0.917 | 1.18 | 1.19 | 1.24
N fixed | 0.332 | 0.848 | 0.273 | 0.57 | 0.593 | 0.618 | 0.982 | 1.02 | 0.762 | 1.14
P fixed | 0.332 | 0.643 | 0.361 | 0.845 | 1.44 | 0.599 | 1.21 | 0.917 | 1.01 | 0.883
Q fixed | 0.95 | 0.552 | 0.373 | 0.858 | 0.669 | 0.412 | 1.1 | 0.702 | 1.13 | 1.18
R fixed | 0.219 | 0.379 | 0.252 | 0.946 | 0.536 | 0.228 | 0.657 | 0.536 | 0.62 | 0.854
S fixed | 1.29 | 0.819 | 0.482 | 0.923 | 0.78 | 0.432 | 0.953 | 0.924 | 0.733 | 0.777
T fixed | 1.09 | 0.867 | 0.646 | 0.831 | 1.03 | 0.784 | 0.916 | 0.806 | 0.664 | 0.821
V fixed | 1.88 | 1.26 | 2.52 | 1.1 | 1.27 | 2.19 | 1.08 | 0.942 | 0.984 | 1.05
W fixed | 0.981 | 3.69 | 2.61 | 2.14 | 1.4 | 0.835 | 0.948 | 1.32 | 1.12 | 1.08
pThr fixed | 3.64 | 1.35 | 0.346 | 0.649 | 0.307 | 1.53 | 1.21 | 1.65 | 0.946 | 0.879
pTyr fixed | 3.48 | 1.27 | 0.712 | 1.14 | 0.357 | 9.09 | 2.21 | 2.25 | 1.83 | 1.55
